Patent US20040265932A1 (AbbVie / Abbott, published 2004)

Target: T1, Mammaglobin polypeptide from breast cancer tissue extract (human, UniProt Q13296 19-93, glycoprotein (Asn 53 and/or Asn 68 may carry sugars))
T1 construct: native protein in tissue extract, 17-23 kD reduced
Assay: legend of FIG. 20A-D; MonoQ fractions, dot blots and Western blots
Description: C. Ion Exchange Chromatography The breast cancer tissue extract derived from the patient with invasive, poorly differentiated adenocarcinoma (breast) (FIG. 11, lanes. 4 and 10) was purified using anion exchange chromatography. Specifically, the 800 uL extract was applied to a Mono Q 5/5 column (Pharmacia) equilibrated with 20 mM piperazine, pH 6.0. The proteins were eluted using a linear gradient of sodium chloride. The flow rate was 1 mL/min; the gradient was 20 mM sodium chloride per milliliter of buffer; and the elution time was 50 minutes; creating an elution profile that went from 0 to 1000 mM sodium chloride. The sample loading time was 30 minutes prior to application of the elution gradient. Each 1 mL fraction was sampled. One hundred microliters of each fraction was boiled in the presence of 0.1% beta-mercaptoethanol and was then applied to a well of a dot blot apparatus and the volume was suctioned through a piece of nitrocellulose. The nitrocellulose filter was then developed with the same procedure to develop Western blots, as described hereinabove in Example 7B, using polyclonal antisera recognizing either BU101 or Mam. […]
Protein extracted from breast tissue was fractionated using a MonoQ column at pH6 and eluted using increasing salt gradient. […] The MamBu complex is detected using both antibodies under non-reducing conditions (FIGS. 20C & D). […]

T1 sequence (Q13296 19-93 limits assumed): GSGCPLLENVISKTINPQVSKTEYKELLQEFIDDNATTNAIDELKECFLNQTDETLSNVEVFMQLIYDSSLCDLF

B1: BU101 polypeptide from breast cancer tissue extract (other)
chain: EFCPALVSELLDFFFISEPLFKLSLAKFDAPPEAVAAKLGVKRCTDQMSLQKRSLIAEVLVKILKKCSV
notes: native protein in tissue extract, about 7 kD reduced
- binding result: binds
